Measurements reported in PMC6853915 (Scientific Reports, 2019).

Tests used:
Details in all cases: both partners purified
[1] = biological target: T1, 17beta-hydroxysteroid dehydrogenase type 10 (human, UniProt Q99714 1-261); assay: SPR; cypD held on immobilised Ab(cypD); 100 nM 17β-HSD10 flowed for 7 min; 10 mM HEPES, 200 μg/ml BSA, 5 mM Na+, pH 7.4 or 7.8, with K+ (up to 140 mM), Mg2+ or Ca2+ (up to 2.5 mM) alone or K+ and Mg2+ combined; 25 °C; reference channel without cypD
T1 construct: the oligomeric state was not measured; also called 17β-HSD10; 17beta-hydroxysteroide dehydrogenase 10; source: bought: Fitzgerald, USA (human, recombinant)
T1 sequence (looked up): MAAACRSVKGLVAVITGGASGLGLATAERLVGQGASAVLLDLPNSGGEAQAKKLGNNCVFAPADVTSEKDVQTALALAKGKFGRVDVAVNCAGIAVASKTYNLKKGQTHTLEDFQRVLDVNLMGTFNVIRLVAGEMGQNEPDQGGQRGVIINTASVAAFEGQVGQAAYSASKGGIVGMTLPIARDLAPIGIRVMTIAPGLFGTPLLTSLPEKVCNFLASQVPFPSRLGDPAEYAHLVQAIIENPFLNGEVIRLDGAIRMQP

[2] = biological target: T2, amyloid-β peptide 1–40 (human, UniProt P05067 672-711); assay: SPR; cypD held on immobilised Ab(cypD); 17β-HSD10 (100 nM), Aβ1–40 or Aβ1–42 (50-1000 nM, mostly 500 nM) or their mixtures, incubated at 37 °C beforehand (1 hour; or Aβ alone 0-180 min, then 10 min with 17β-HSD10), flowed for 7 or 10 min; HEPES_FINAL (10 mM HEPES, 200 μg/ml BSA, 5 mM Na+, 15 mM K+, 0.1 mM Mg2+, pH 7.4); 25 °C
T2 construct: amyloid-β peptide, residues 1-40 (40 aa), human, cut product of the amyloid precursor protein; numbers count on: the Aβ peptide; The authors take it to stay monomeric under the conditions used; also called Aβ1–40; Aβ_(1–40); source: synthetic peptide; bought: AnaSpec, USA

[3] = biological target: T3, amyloid-β peptide 1–42 (human, UniProt P05067 672-713); assay: as above
T3 construct: amyloid-β peptide, residues 1-42 (42 aa), human, cut product of the amyloid precursor protein; numbers count on: the Aβ peptide; Incubated at 37 °C before injection; the authors take it to form oligomers of a size that was not measured; also called Aβ1–42; Aβ_(1–42); source: synthetic peptide; bought: AnaSpec, USA

Measured: binding result

T2 sequence (P05067 672-711): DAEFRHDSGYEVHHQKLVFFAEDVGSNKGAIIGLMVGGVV
T3 sequence (P05067 672-713): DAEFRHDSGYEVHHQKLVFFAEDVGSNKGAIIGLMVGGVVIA

B1: cyclophilin D (enzyme)
chain: not shown
notes: cyclophilin D (cypD), human, recombinant; Held on the chip through an immobilised antibody against cypD; also called cypD; source: bought: Fitzgerald, USA (human, recombinant)
binds: all assays above
